The record followed here is article PMC3377380 (Molecular Membrane Biology, 2012).

One assay deals with T1, GST-Obsc_(6316–6345) (Rattus norvegicus).
T1 chain: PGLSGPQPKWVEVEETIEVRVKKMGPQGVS
The assay is described as follows: SPR. For orientation: In SPR one partner is held on a chip, and binding of the other changes the refractive index at the surface.

For a further assay, the target named is GST-Obsc_(6231–6260) (Rattus norvegicus). The assay is described as follows: SPR.

B1: sAnk1-MBP I102A (domain or fragment)
chain: VKGSLCFVLKHIHQELDKELGESEGLSDDEETISTRVVRRRVFLKGDELQNIPGEQVTEEQFTDEQGNIVTKKAIRKVVRQVDSSGAIDTQQHEEVELRGSGLQPDLIEGRKGAQIVKRASLKRGKQ
Take B1: in the assay with GST-Obsc_(6316–6345), the “fold reduction in kon against wild type” value is approximately 3 fold.

B2: sAnk1-MBP (wild type, sAnk1 residues 29–155) (domain or fragment)
chain: VKGSLCFVLKHIHQELDKELGESEGLSDDEETISTRVVRRRVFLKGDELQNIPGEQVTEEQFTDEQGNIVTKKIIRKVVRQVDSSGAIDTQQHEEVELRGSGLQPDLIEGRKGAQIVKRASLKRGKQ
For orientation: Kd means the constant that tells how readily two partners part at equilibrium. A low value points to higher affinity. In the case of B2, the dissociation constant (Kd) with GST-Obsc_(6316–6345) is approximately 130 nM.

B3: sAnk1-MBP F71A (domain or fragment)
chain: VKGSLCFVLKHIHQELDKELGESEGLSDDEETISTRVVRRRVALKGDELQNIPGEQVTEEQFTDEQGNIVTKKIIRKVVRQVDSSGAIDTQQHEEVELRGSGLQPDLIEGRKGAQIVKRASLKRGKQ
As for B3, the “fold decrease in kon against wild type” value in the assay with GST-Obsc_(6231–6260) was approximately 2 fold.

B4: sAnk1-MBP I103A (domain or fragment)
chain: VKGSLCFVLKHIHQELDKELGESEGLSDDEETISTRVVRRRVFLKGDELQNIPGEQVTEEQFTDEQGNIVTKKIARKVVRQVDSSGAIDTQQHEEVELRGSGLQPDLIEGRKGAQIVKRASLKRGKQ
Consider B4, for which, in the assay with GST-Obsc_(6231–6260), the “fold decrease in kon against wild type” value was approximately 2 fold.
